Experimental findings from patent US20250361297A1 (ADAPTAM THERAPEUTICS S L, published 2025) are described below.

The target in assay [1] is T1, human Siglec-15, full length, expressed on cells (human, UniProt Q6ZMC9 20-328).
T1 construct: also called hS15; MOLM-13 Siglec-15 expressing cells
T1 sequence: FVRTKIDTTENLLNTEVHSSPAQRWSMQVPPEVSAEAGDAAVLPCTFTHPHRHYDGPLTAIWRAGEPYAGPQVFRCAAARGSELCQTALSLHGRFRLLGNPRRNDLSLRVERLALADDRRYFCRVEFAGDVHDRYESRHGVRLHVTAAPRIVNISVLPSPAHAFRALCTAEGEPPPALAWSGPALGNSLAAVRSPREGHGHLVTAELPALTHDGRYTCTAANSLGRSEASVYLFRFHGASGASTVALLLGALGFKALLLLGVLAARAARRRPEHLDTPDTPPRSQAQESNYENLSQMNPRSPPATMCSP
Kind of assay: flow cytometry, HEK293T cells expressing human Siglec-15, anti-human IgG-PE, gMFI.
Procedure: (§1) Assessment of the binding of anti-Siglec-15 antibodies to HEK293T cells expressing full length human Siglec-15, or mutant human Siglec-15 (R143A) or the domain 2 of human Siglec-15 by Flow cytometry: Siglec-15+, Siglec-15+R143A, and Siglec-15 Domain 2 (D2) HEK293T cells were detached using tryple and washed once with PBS, resuspended in 1× flow cytometry buffer (PBS with 1% FBS) at approximately 1-2×10\hat{ }6 cells/mL. Then, anti-Siglec-15 mAbs were added to the cell suspension at the desired concentration, starting at 10 μg/mL and performing 1/3 dilutions. Cells were incubated with the indicated antibodies for 30-60 minutes at 4° C. in the dark to prevent degradation of the fluorescent signal. After the primary antibody incubation, cells were washed twice with PBS or flow cytometry buffer by centrifuging at 300-500× g for 5 minutes and the pellet resuspended in fresh buffer. The following antibody was added: anti-human IgG-PE at a 1:500 dilution. Cells were incubated with the secondary antibody for 30 minutes at 4° C. in the dark. Finally, cells were washed twice with PBS or flow cytometry buffer to remove any excess secondary antibody and acquired in a flow cytometer.

Assay [2] concerns the target T1, human Siglec-15, full length, expressed …. Kind of assay: IgG1 titration, flow cytometry on MOLM-13 human Siglec-15 cells.
Procedure: Complementary to the ELISA, flow cytometry assays provided insight into the binding behavior of the antibodies on the cell surface. Here, titration of the antibodies began at the same concentration of 10 μg/ml, using MOLM-13 human Siglec-15 and MOLM-13 wild-type cells as a negative control, with detection performed using an anti-human Fc secondary antibody (FIG. 8B).
In the flow cytometry assay, MOLM-13 cells expressing human Siglec-15 and MOLM-13 wild-type cells (negative control) were incubated with titrated antibodies starting at 10 μg/ml. After incubation, cells were washed and incubated with an anti-human Fc-specific secondary antibody conjugated with a fluorescent marker. Flow cytometric analysis was conducted, and fluorescence intensity was used to calculate EC50 values, providing a quantitative assessment of the antibodies' cell surface binding efficacy.
Assay [3] addresses T2, mouse Siglec-15, full length, expressed on HEK293T cells (mouse).
T2 construct: also called mS15; HEK293T cells expressing mouse Siglec-15
T2 chain: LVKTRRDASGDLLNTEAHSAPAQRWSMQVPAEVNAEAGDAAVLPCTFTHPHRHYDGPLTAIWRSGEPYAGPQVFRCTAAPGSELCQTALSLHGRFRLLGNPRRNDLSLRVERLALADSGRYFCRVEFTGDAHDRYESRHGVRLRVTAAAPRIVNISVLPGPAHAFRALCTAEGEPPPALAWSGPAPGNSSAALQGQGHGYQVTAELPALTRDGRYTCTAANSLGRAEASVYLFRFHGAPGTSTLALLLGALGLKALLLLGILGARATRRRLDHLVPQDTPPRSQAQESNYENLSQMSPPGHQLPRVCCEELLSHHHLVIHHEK
Kind of assay: IgG1 titration, flow cytometry on HEK293T cells expressing mouse Siglec-15. On the technique in general: A flow cytometer gives signals particle by particle.
Procedure: The antibodies were titrated against HEK293T cells expressing mouse Siglec-15 or HEK293T cells expressing a truncated human Siglec-15 consisting solely of domain 2 (FIG. 9).
For the ELISA, antigens were immobilized on high-binding plates, and the full-length IgG1 anti-Siglec-15 antibodies were titrated beginning at a concentration of 10 μg/ml. After washing, an anti-human IgG Fab-specific HRP-conjugated secondary antibody was applied for detection. Palivizumab was included as the negative control. Optical densities were measured to generate binding curves from which EC50 values were derived. In the flow cytometry assay, MOLM-13 cells expressing human Siglec-15 and MOLM-13 wild-type cells (negative control) were incubated with titrated antibodies starting at 10 μg/ml. After incubation, cells were washed and incubated with an anti-human Fc-specific secondary antibody conjugated with a fluorescent marker. Flow cytometric analysis was conducted, and fluorescence intensity was used to calculate EC50 values, providing a quantitative assessment of the antibodies' cell surface binding efficacy. HEK293T cells were genetically engineered to express full-length mouse Siglec-15 and a truncated version of human Siglec-15 encompassing only domain 2. Antibodies were titrated starting at a concentration of 10 μg/ml and detected with an anti-human Fc-specific secondary antibody to detect bound primary antibodies. […] Results were analyzed and ranked based on the EC50 values.

For assay [4], the target named is T3, truncated human Siglec-15 comprising only domain 2 (D2), expressed on HEK293T cells (human, UniProt Q6ZMC9 168-251, limits assumed).
T3 construct: also called domain 2-only human Siglec-15; Siglec-15 Domain 2 (D2) HEK293T cells
T3 sequence: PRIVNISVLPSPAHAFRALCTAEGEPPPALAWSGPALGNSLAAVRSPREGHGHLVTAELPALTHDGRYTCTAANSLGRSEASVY
Kind of assay: flow cytometry, HEK293T cells expressing only domain 2 of human Siglec-15, fold change of Siglec15 gMFI relative to 2ry control.
Procedure: as §1

The target of assay [5] is T1, human Siglec-15, full length, expressed …. Kind of assay: flow cytometry, HEK293T cells expressing human Siglec-15, anti-human IgG-PE, MFI.
Procedure: Flow cytometry was used to quantify the antibodies bound to the HEK293T cells.
Then, anti-Siglec-15 mAbs were added to the cell suspension at the desired concentration, starting at 10 μg/mL and performing 1/3 dilutions. Cells were incubated with the indicated antibodies for 30-60 minutes at 4° C. in the dark to prevent degradation of the fluorescent signal. After the primary antibody incubation, cells were washed twice with PBS or flow cytometry buffer by centrifuging at 300-500× g for 5 minutes and the pellet resuspended in fresh buffer. The following antibody was added: anti-human IgG-PE at a 1:500 dilution. Cells were incubated with the secondary antibody for 30 minutes at 4° C. in the dark. Finally, cells were washed twice with PBS or flow cytometry buffer to remove any excess secondary antibody and acquired in a flow cytometer.
For assay [6], the target named is T4, recombinant human Siglec-15-his protein (Bonopusbio) (human, UniProt Q6ZMC9 20-263).
T4 construct: Bought (CW37-50 ug in the ELISA; the SPR paragraph prints CW70-50 ug); whole entry named; also called recombinant human Siglec-15 protein
T4 sequence: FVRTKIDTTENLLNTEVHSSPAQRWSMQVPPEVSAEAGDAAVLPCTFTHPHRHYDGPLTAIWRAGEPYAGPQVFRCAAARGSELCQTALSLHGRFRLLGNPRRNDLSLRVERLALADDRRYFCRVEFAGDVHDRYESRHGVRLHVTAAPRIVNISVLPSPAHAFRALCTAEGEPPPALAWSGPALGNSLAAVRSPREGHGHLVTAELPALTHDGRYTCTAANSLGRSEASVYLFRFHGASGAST
Kind of assay: SPR (Biacore T200), antibody on CM5 chip, Siglec-15-his as analyte. (SPR reads the build-up and loss of mass on a sensor chip optically.)
Procedure: Binding affinity determination of anti-Siglec-15 monoclonal antibodies using BIACORE surface plasmon resonance: The purified anti-Siglec-15 monoclonal antibodies (mAbs) were characterized for binding affinity and binding kinetics by Biacore T200 system (GE healthcare, Pittsburgh, PA, USA). […] Un-reacted moieties on the biosensor surface were blocked with ethanolamine. Then, serially diluted recombinant human Siglec-15-his protein (Bonopusbio, CW70-50 ug), 2-fold serial dilution in HBS-EP buffer starting at 80 nM, were respectively flown onto the chip at a flow rate of 30 pL/min. The antigen-antibody association kinetics was followed for 2 minutes, and the dissociation kinetics was followed for 10 minutes. The association and dissociation curves were fit to a 1:1 Langmuir binding model using BIAcore evaluation software. The dissociation rate (kd) and association constant (ka) rate constants were obtained using Evaluation Software. The equilibrium dissociation constant (KD) was calculated from the ratio of kd over ka.

The target in a further assay is T5, CD3 on Jurkat cells (UniProt P07766 23-207).
T5 construct: whole, on cells; Whole CD3 complex on cells; also called CD3-expressing Jurkat cells; Jurkat cells expressing CD3
T5 sequence (P07766 23-207): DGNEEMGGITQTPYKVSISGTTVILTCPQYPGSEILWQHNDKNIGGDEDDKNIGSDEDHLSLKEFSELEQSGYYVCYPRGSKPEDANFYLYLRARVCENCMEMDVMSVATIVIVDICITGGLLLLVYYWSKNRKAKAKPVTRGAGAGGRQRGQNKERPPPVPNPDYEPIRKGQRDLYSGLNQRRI
Kind of assay: flow cytometry, Jurkat cells expressing CD3, gMFI.

Another assay concerns the target recombinant CD3 (UniProt P07766 23-126; P09693 23-116). Nature of the assay: antibody as ligand, 'Human CD3 epsilon&CD3 gamma' as analyte; legend paragraph 116 says BLI, methods paragraph 422 say Biacore SPR, table in RU.

Numbering of substitutions follows the chain as printed. Names may count otherwise.

Chain of recombinant CD3 (P07766 23-126, form in doubt, chain 1 of 2): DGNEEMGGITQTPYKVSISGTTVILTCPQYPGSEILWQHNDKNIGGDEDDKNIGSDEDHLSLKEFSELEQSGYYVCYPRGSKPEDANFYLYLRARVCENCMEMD
Chain of recombinant CD3 (P09693 23-116, form in doubt, chain 2 of 2): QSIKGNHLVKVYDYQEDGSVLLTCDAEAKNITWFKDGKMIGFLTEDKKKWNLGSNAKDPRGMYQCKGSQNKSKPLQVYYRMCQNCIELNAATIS

B1: 5G12 (antibody, V domains shown)
VH: QVQLQQPGAELVKPGASVKMSCKASGYTFTSYWITWVIQRPGQGLEWIGDIYCGSDTMHYNEKFKNKATLTVDTSSSTAYMQLSSLTSEDSAVYYCARWWDYGSSYDYFDYWGQGTTLTVSS
VL: DIKMTQSPSSMYASLGERVTITCKASQDINSYLSWFQQKPGKSPKTLIYRANRLVDGVPSRFSGSGSGQDYSLTISSLEYEDMGIYYCLQYDEFPYTFGGGTKLEIKR
A word on the EC50 (read off the curve): it is the concentration that produces a half-maximal response. High values mean weaker potency, low ones greater potency. Turning to B1, the “EC50 (read off the curve)” value in assay [1] is approximately 1 nM.

B2: ZLA-1243-E01 (antibody, V domains shown)
VH: QVQLVQSGGGLVQPGRSLRLSCAASGFTFDDYAMHWVRQAPGKGLEWVSGISWNSGSIGYADSVKGRFTISRDNAKNSLYLQMNSLRAEDTALYYCAKGLWPSYDLDAFDIWGQGTMVTVSS
VL: QSALTQPASVSGSPGQSITLSCTGTSSDVGAYNFVSWYQQHPGTAPKLMIYEVSNRPSGVSDRFSGSKSGNTASLTISGLQAEDEADYYCSSYTSTIPPFVFGTGTKVTVL
notes: Fully human, from phage display
A word on the EC50: it is the midpoint of the concentration-response curve. Turning to B2, the EC50 in assay [2] worked out at 0.174 µg/mL; in assay [3], 0.0849 µg/mL. Also, the binding result in assay [4] is on record as “no binding”.

B3: ZLA-1243-A01 (antibody, V domains shown)
VH: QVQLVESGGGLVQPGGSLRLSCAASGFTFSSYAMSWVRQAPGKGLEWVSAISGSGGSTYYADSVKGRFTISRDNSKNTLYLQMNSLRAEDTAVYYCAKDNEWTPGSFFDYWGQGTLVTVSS
VL: QSALTQPASVSGSPGQSITISCTGTSSDVGGYNYVSWYQQHPGKAPKLMIYDVSNRPSGVSNRFSGSKSGNTASLTISGLQAEDEADYYCSSYTSSSTRVFGGGTKVTVL
notes: Fully human, from phage display; tested as full-length human IgG1 with silenced Fc (E233P, L234V, L235A, G236 deletion, D265G, A327Q, A330S, C-terminus lysine deletion)
As to B3, the EC50 turned out to be 0.181 µg/mL in assay [2] and 0.0753 µg/mL in assay [3]. Also, the binding result in assay [4] is given as “no binding”. The “EC50 (read off the curve)” value in assay [1] was approximately 1 nM.

B4: S15B1-VH3 + VL2 (antibody, V domains shown)
VH: QVQLVQSGAEVKKPGASVKVSCKASGYAFSSSWMNWVKQAPGQGLEWIGRIYPGHGETNYNGKFKDRATMTADTSTSTVYMELSSLRSEDTAVYFCARVDNSDPYYFDYWGQGTTVTVSS
VL: DIVLTQSPASLAVSPGQRATITCRASKSVSTSGYSYMHWYQQKPGQPPKLLIYLASNLESGVPARFSGSGSGTDFTLTINPVEAEDTATYYCQHGRELPFTFGGGTKLEIK
notes: Humanized S15B1; also called humanized S15B1 VH3+VL2; huS15B1
The term Kd denotes the equilibrium constant for the complex coming apart. As usually defined, the koff is a measure of how fast the partners let go of each other. A word on the kon: it is a measure of how fast the partners come together. Regarding B4, in assay [5], the “EC50 (read off the curve)” value was approximately 1 nM. For the same molecule, in assay [6], the Kd came out at 0.0653 nM, the koff is 0.000293 s⁻¹ and the kon was 4.49e+06 M⁻¹ s⁻¹.

B5: S15B1-VH3 + VL1 (antibody, V domains shown)
VH: B4 VH
VL: B4 VL with T89N
notes: Humanized S15B1; also called humanized S15B1 VH3+VL1; huS15B1
As to B5, the “EC50 (read off the curve)” value in assay [5] was approximately 1 nM. In addition, in assay [6], the Kd amounted to 0.069 nM, the dissociation rate constant (koff) was determined as 0.000257 s⁻¹ and the kon turned out to be 3.73e+06 M⁻¹ s⁻¹.

B6: S15B1-VH2 + VL2 (antibody, V domains shown)
VH: B4 VH with K38R, A68V
VL: B4 VL
notes: Humanized S15B1; also called humanized S15B1 VH2+VL2; huS15B1
Regarding B6, the “EC50 (read off the curve)” value in assay [5] is approximately 1 nM. Moreover, in assay [6], the Kd was found to be 0.0946 nM, the koff was 0.000326 s⁻¹ and the kon stood at 3.44e+06 M⁻¹ s⁻¹.

B7: ZLA-1214-B07 (antibody, V domains shown)
VH: QVQLVQSGAEVKKPGSSVKVSCKASGGTFSSYAISWVRQAPGQGLEWMGGIIPIFGTANYAQKFQGRVTITADESTSTAYMELSSLRSEDTAVYYCARDGGRDGYNPKKILEFDYWGQGTLVTVSS
VL: not shown
notes: as for B2
In the case of B7, the values for the EC50 in assay [2] and in assay [3] were 0.133 µg/mL and 0.102 µg/mL, respectively. Besides, the binding result in assay [4] is on record as “no binding”.

B8: ZLA-1212-B05 (antibody, V domains shown)
VH: QVQLVQSGGGVVQPGRSLRLSCAASGFTFSSYAMHWVRQAPGKGLEWVAVISYDGSNKYYADSVKGRFTISRDNSKNTLYLQMNSLRAEDTAVYYCAREGGSYYGYFDYWGQGTLVTVSS
VL: QSVLTQPPSVSVAPGKTARITCGGNNIGSKSVHWYQQKPGQAPVLVIYDDSDRPSGIPERFSGSNSGNTATLTISRVEAGDEADYYCQVWDSSSDHRVFGGGTKLTVL
notes: Fully human, from phage display; also called clone ZLA-1212-B05
In the case of B8, the EC50 in assay [2] amounted to 0.215 µg/mL; in assay [3] it was 0.168 µg/mL. For the same molecule, the binding result in assay [4] is recorded as “no binding”.

B9: parental anti-CD3 antibody (humanized SP34 CD3 antibody) (antibody, V domains shown)
VH: EVQLVESGGGLVKPGGSLRLSCAASGFTFNTYAMNWVRQAPGKGLEWVARIRSKYNNYATYYADSVKDRFTISRDDSKNTLYLQMNSLKTEDTAVYYCVRHGNFGNSYVSWFAYWGQGTLVTVSS
VL: QTVVTQEPSFSVSPGGTVTLTCRSSTGAVTTSNYANWVQQTPGQAPRGLIGGTNKRAPGVPARFSGSILGNKAALTITGAQADDEAEYFCALWYSNLWVFGGGTKLTVL
notes: also called anti-human CD3 humanized antibody; anti-CD3 mAb
Turning to B9, the “EC50 (read off the curve)” value in the assay with CD3 on Jurkat cells is approximately 0.2 nM. In the assay with recombinant CD3, the Kd came to 67.1 nM, the koff was found to be 0.00713 s⁻¹ and the on-rate (kon) worked out at 106000 M⁻¹ s⁻¹.

B10: ZLA-1212-E09 (antibody, V domains shown)
VH: QVQLVQSGGGVVQPGRSLRLSCAASGFTFSSYGMHWVRQAPGKGLEWVAVISYDGSNKYYADSVKGRFTISRDNSKNTLYLQMNSLRAEDTAVYYCAKDDSGYYDSSGYDYWGQGTLVTVSS
VL: QSVLTQPPSVSGAPGQRVTISCTGSSSNIGAGYDVHWYQQLPGTAPKLLIYGNSNRPSGVPDRFSGSKSGTSASLAITGLQAEDEADYYCQSYDSSLSGVVFGGGTKLTVL
notes: also called clone ZLA-1212-E09
Turning to B10, the figures for the EC50 in assay [2] and in assay [3] were 0.178 µg/mL and 0.191 µg/mL, respectively. The binding result in assay [4] is given as “no binding”.

B11: A2A5C7E8-3 (antibody, V domains shown)
VH: EVQLVQSGAEVKKPGESLRISCKGSGYSFTTYWISWVRQMPGKGLEWMGLIDPSDSYTNYSPSFKGHVTISTDKSISTAYLQWSSLKASDTAMYYCARGGYYGSEEDYWGQGTLVTVSS
VL: EIVLTQSPGTLSLSPGERATLSCRASQSVSSSRLAWFQQKSGQAPRLLIFDASSRATGIPDRFSGSGSGTDFTLTISRLEPEDFAVYYCQQYGSSPRTFGQGTKVEFKR
For the molecule B11, the “EC50 (read off the curve)” value in assay [1] was approximately 0.5 nM.

B12: ZLA-1214-D08 (antibody, V domains shown)
VH: EVQLVQSGAEVKKPGASVKVSCKASGYTFTGYYMHWVRQAPGQGLEWMGRINPNSGGTNYAQKFQGRVTMTRDTSTSTAYMELSRLRSDDTAVYYCARVINDAFDMWGQGTMVTVSS
VL: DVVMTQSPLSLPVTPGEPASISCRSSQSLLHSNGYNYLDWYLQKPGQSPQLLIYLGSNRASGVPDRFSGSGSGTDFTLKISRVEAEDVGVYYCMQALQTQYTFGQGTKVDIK
notes: as for B2
On to B12, for which the concentration giving a half-maximal response (EC50) in assay [2] is 0.106 µg/mL; in assay [3], 0.103 µg/mL. Moreover, the binding result in assay [4] is given as “no binding”.
